Results on 8 molecules are retold here after US20240101716A1 (LA NOVA MEDICINES DEVELOPMENT, published 2024).

In test [1] the target is PD-L1 (blocking assay of Example 11) (UniProt Q9NZQ7 19-239, limits assumed). The test can be described thus: cell-based or functional assay.
The target in test [2] is T1, PD-L1 expressed on cells (UniProt Q9NZQ7 19-290, limits assumed).
T1 construct: whole, on cells
As to the kind of experiment: FACS binding test on PD-L1 cell line, Geom.Mean; unit from the axis log(nm). (In general: In flow cytometry, cells or beads pass a laser one at a time.)

The target in test [3] is T2, recombinant human SIRPα variant 2 protein (human, UniProt P78324 31-370, limits assumed).
T2 construct: polymorphic variant 2; also called SIRPα v2; hSIRPαV2
As to the kind of experiment: SPR Biacore 8K, antibody captured, antigen analyte. The protocol: The binding kinetics assay of antibody to antigen was performed using Biacore 8K system through human antibody capture approach. The […] Fc lgG were immobilized on CM5 sensor chip according to the manufactory's instruction. The test antibody was injected and captured by the immobilized anti-human Fc lgG. […] The assay system was regenerated by injection of 10 mM Glycine-HCl pH 1.5 for 30 seconds. The running buffer was HBS-EP+ (10 mM HEPES, pH 7.4, 150 mM NaCl, 3 mM EDTA and 0.05% P20). The assay temperature was 25° C., and the association and dissociation time were 180 and 600 seconds, respectively.
Background: SPR reads the build-up and loss of mass on a sensor chip optically.

Test [4] concerns the target T2, recombinant human SIRPα variant 2 …. The test can be described thus: ELISA on coated recombinant human SIRPα v2, OD450. The protocol: After coating of the antigen, the wells were blocked with PBS/0.05% Tween (PBST) with 1% BSA for 1 h at RT.
Between all incubation steps, the wells of the plate were washed with PBST three times. […]
In general terms: In an ELISA, binding on a coated surface is turned into a signal by an enzyme label.

The term EC50 denotes the concentration giving half of the maximal effect. Broadly, the Kd is the equilibrium constant for the complex coming apart. The koff is the rate constant with which the complex falls apart. What is called kon is the rate constant with which the complex forms.

T1 sequence (Q9NZQ7 19-290 limits assumed): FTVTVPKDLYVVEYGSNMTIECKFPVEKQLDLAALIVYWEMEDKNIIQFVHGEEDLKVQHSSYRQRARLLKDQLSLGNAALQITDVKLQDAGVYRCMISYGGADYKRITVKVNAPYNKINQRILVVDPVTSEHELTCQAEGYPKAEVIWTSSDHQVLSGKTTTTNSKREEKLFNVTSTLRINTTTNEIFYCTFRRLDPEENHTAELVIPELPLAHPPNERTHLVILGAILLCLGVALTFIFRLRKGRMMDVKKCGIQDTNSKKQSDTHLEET
Chain of PD-L1 (blocking assay of Example 11) (Q9NZQ7 19-239 limits assumed): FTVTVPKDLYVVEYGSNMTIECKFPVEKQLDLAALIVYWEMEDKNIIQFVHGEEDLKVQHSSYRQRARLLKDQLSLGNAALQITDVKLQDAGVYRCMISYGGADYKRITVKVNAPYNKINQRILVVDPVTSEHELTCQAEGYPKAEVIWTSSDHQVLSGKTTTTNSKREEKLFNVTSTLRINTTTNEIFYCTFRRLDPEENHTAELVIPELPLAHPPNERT
T2 sequence (P78324 other isoform, or with tags, fused parts or gaps mutant limits assumed): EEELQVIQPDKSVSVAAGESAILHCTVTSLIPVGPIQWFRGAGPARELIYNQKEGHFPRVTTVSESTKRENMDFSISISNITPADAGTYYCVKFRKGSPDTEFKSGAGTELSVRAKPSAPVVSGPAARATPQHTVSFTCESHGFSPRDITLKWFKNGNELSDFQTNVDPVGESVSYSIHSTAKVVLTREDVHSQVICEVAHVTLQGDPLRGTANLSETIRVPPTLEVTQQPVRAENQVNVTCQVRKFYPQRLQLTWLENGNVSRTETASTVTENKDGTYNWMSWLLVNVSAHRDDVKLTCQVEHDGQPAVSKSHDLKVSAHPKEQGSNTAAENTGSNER

B1: PD-L1/SIRPa-LN2 (bispecific antibody, human IgG4 S228P, kappa)
heavy: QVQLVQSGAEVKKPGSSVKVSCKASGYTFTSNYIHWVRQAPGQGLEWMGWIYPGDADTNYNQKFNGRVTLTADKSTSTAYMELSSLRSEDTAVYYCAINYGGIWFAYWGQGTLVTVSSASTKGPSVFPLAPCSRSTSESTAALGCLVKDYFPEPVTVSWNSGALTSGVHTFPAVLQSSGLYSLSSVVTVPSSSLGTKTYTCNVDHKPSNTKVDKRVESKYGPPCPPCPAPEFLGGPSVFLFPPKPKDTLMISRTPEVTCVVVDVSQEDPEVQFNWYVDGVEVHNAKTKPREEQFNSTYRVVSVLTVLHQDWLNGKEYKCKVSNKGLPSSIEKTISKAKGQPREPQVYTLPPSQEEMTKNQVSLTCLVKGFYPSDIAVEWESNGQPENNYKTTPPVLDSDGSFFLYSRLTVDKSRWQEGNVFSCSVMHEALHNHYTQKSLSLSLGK
light: EVQLVESGGGLVQPGGSLRLSCAASGRTFVTYGMGWFRQAPGKGREFVSAISWSGSMTSYGDSVKGRFTISRDNAKNTLYLQMNSLRPEDTAVYYCAAALGAVVYTTREPYTYWGQGTLVTVSSGGGGSGGGGSGGGGSDIQMTQSPSSLSASVGDRVTITCQASQDIGNKLIWYQQKPGKAPKLLIYYVTNLPGGVPSRFSGSGSGTDFTLTISSLQPEDFATYYCLQYKQNPLTFGQGTKLEIKRTVAAPSVFIFPPSDEQLKSGTASVVCLLNNFYPREAKVQWKVDNALQSGNSQESVTEQDSKDSTYSLSSTLTLSKADYEKHKVYACEVTHQGLSSPVTKSFNRGEC
notes: Format IV: sdAb at the N-terminus of the light chain (300A6A6); also called PD-L1/SIRPα-LN2
With B1, in test [1], the “EC50, luminescence (RLU) in the PD-1/PD-L1 Blockade Assay” value (“EC50, luminescence (RLU)” below) is 0.873 nM. This molecule came in with an EC50 in test [2] of 0.205 nM.

B2: PD-L1/SIRPa-HC1 (bispecific antibody, human IgG4 S228P, kappa)
heavy: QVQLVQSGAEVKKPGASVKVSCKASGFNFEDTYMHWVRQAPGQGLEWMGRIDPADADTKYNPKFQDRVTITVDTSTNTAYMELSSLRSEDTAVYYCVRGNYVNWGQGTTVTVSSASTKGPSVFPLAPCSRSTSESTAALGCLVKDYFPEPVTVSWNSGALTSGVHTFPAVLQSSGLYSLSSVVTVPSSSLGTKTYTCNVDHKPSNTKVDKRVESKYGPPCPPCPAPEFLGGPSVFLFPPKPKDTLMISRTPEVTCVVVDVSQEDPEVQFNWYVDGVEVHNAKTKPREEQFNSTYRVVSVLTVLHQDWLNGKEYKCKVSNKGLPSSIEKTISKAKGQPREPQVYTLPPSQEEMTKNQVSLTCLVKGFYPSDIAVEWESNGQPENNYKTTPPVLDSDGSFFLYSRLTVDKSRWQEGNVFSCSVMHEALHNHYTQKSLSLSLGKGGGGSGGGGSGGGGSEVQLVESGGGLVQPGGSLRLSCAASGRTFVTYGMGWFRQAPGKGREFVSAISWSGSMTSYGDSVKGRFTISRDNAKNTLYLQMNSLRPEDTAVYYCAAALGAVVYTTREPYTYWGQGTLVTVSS
light: EIVLTQSPGTLSLSPGERATLSCRASSSVSSSYLYWYQQKPGQAPRLLIYSTSNLASGIPDRFSGSGSGTDYTLTISRLEPEDAAVYFCHQWYSYPRTFGGGTKVEIKRTVAAPSVFIFPPSDEQLKSGTASVVCLLNNFYPREAKVQWKVDNALQSGNSQESVTEQDSKDSTYSLSSTLTLSKADYEKHKVYACEVTHQGLSSPVTKSFNRGEC
notes: Format I: AS11948SVH12 sdAb at the C-terminus of IgG4 Fc of 02-hz52 (248G3F6); also called PD-L1/SIRPα-HC1
Consider B2, for which the “EC50, luminescence (RLU)” value in test [1] was determined as 0.9 nM. Besides, the EC50 in test [2] stood at 0.321 nM.

B3: PD-L1/SIRPa-HN1 (bispecific antibody, human IgG4 S228P, kappa)
heavy: not shown
light: B2 light
notes: Format II: sdAb at the N-terminus of the heavy chain (248G3F6); also called PD-L1/SIRPα-HN1
The molecule B3 registered an EC50 in test [2] of 0.311 nM.

B4: HSP210-03-hz51 (antibody, V domains shown)
VH: QVQLVQSGAEVKKPGSSVKVSCKASGYTFTSNYIHWVRQAPGQGLEWMGWIYPGDADTNYNQKFNGRVTLTADKSTSTAYMELSSLRSEDTAVYYCAINYGGIWFAYWGQGTLVTVSS
VL: DIQMTQSPSSLSASVGDRVTITCQASQDIGNKLIWYQQKPGKAPKLLIYYVTNLPGGVPSRFSGSGSGTDFTLTISSLQPEDFATYYCLQYKQNPLTFGQGTKLEIK
notes: humanized 300A6A6, VH v5 + VL v1; also called SIRPa IgG#2 03-hz51
As for B4, in test [3], the Kd came to 3.03 nM, the koff is 0.001 s⁻¹ and the kon worked out at 331000 M⁻¹ s⁻¹.

B5: PD-L1/SIRPa-LC2 (bispecific antibody, human IgG4 S228P, kappa)
heavy: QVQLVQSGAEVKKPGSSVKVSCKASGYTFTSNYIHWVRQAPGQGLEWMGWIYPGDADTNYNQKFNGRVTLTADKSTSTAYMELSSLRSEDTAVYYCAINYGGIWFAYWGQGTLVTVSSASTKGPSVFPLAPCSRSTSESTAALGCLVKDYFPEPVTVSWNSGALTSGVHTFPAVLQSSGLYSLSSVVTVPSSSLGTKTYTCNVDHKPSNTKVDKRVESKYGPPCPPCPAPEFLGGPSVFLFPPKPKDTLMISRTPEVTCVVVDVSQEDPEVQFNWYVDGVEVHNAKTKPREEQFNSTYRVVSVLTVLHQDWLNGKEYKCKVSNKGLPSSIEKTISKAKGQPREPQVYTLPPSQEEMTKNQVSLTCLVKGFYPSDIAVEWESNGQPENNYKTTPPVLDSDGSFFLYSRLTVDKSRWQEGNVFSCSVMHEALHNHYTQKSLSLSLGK
light: DIQMTQSPSSLSASVGDRVTITCQASQDIGNKLIWYQQKPGKAPKLLIYYVTNLPGGVPSRFSGSGSGTDFTLTISSLQPEDFATYYCLQYKQNPLTFGQGTKLEIKRTVAAPSVFIFPPSDEQLKSGTASVVCLLNNFYPREAKVQWKVDNALQSGNSQESVTEQDSKDSTYSLSSTLTLSKADYEKHKVYACEVTHQGLSSPVTKSFNRGECGGGGSGGGGSGGGGSEVQLVESGGGLVQPGGSLRLSCAASGRTFVTYGMGWFRQAPGKGREFVSAISWSGSMTSYGDSVKGRFTISRDNAKNTLYLQMNSLRPEDTAVYYCAAALGAVVYTTREPYTYWGQGTLVTVSS
notes: Format III: sdAb at the C-terminus of the light chain (300A6A6); also called PD-L1/SIRPα-LC2
Regarding B5, the “EC50, luminescence (RLU)” value in test [1] turned out to be 1.55 nM. Besides, a half-maximal effect in test [2] (EC50) was put at 0.912 nM.

B6: 300A6A6 (antibody, V domains shown)
VH: QVQLQQSGTELVKPGSSVKISCKASGYTFTSNYIHWIRQQPGNGLEWIGWIYPGDGDTNYNQKFNGKATLTADKSSSTAYMQLSSLTSEDYAVYFCAINYGGIWFAYWGQGTLVTVSS
VL: DIQMTQSPSSMSASLGDRVTITCQASQDIGNKLIWFQQKPGKSPRLMIHYVTNLPGGVPLRFSGSRSGSDYSLTISSLESEDMADYYCLQYKQNPLTFGSGTKLEIK
notes: murine hybridoma antibody; also called mouse anti-SIRPα mAb 300A6A6
For the molecule B6, the EC50 in test [4] was found to be 0.0105 µg/mL.

B7: 248G3F6 (antibody, V domains shown)
VH: EVQLQQSGAELVKPGASVKLSCTASGFNFEDTYMHWVKQRPDQGLEWIGRIDPADGDTKYNPKFQDKATITVDTSSNTAYLQLSSLTSEDTAVYYCVRGNYVNWGQGTTLTVSS
VL: QIVLIQSPAIMSASPGERVTLTCRASSSVSSSYLYWYQQKPGSSPKLWIYSTSNLASGVPARFSGSGSGTSYSLTISSMEAEDAASYFCHQWYSYPRTFGGGTKLEIK
notes: murine hybridoma antibody; also called mouse anti-SIRPα mAb 248G3F6
As to B7, in test [4], the EC50 worked out at 0.0136 µg/mL.

B8: PD-L1/SIRPa-HN2 (bispecific antibody, human IgG4 S228P, kappa)
heavy: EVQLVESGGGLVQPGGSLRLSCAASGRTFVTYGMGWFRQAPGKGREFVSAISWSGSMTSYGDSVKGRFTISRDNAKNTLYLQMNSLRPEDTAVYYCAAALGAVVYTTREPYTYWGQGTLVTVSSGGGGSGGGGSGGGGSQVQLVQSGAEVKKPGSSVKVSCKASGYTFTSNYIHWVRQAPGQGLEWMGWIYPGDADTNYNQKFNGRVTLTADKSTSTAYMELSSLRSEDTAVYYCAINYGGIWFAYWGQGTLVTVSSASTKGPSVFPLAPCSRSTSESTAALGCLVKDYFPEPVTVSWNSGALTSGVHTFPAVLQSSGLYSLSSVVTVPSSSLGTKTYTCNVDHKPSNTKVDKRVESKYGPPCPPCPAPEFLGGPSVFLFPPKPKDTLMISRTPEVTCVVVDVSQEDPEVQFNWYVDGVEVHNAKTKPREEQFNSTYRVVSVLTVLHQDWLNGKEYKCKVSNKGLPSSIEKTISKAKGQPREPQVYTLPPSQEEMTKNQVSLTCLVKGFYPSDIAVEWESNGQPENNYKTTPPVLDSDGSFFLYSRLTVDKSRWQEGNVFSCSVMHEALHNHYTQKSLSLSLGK
light: DIQMTQSPSSLSASVGDRVTITCQASQDIGNKLIWYQQKPGKAPKLLIYYVTNLPGGVPSRFSGSGSGTDFTLTISSLQPEDFATYYCLQYKQNPLTFGQGTKLEIKRTVAAPSVFIFPPSDEQLKSGTASVVCLLNNFYPREAKVQWKVDNALQSGNSQESVTEQDSKDSTYSLSSTLTLSKADYEKHKVYACEVTHQGLSSPVTKSFNRGEC
notes: Format II: sdAb at the N-terminus of the heavy chain (300A6A6); also called PD-L1/SIRPα-HN2
For the molecule B8, in test [1], the “EC50, luminescence (RLU)” value was determined as 0.908 nM. For the same molecule, the EC50 in test [2] was 0.269 nM.
